The results in this text go back to patent US20180172692.

The target in data set [1] is T1, β9.
T1 chain: GSMLFRVTINS

For data set [2], the target named is T2, β10*.
T2 chain: VSGWRLFKKIS

B1: Δ11S (protein)
chain: MVFTLEDFVGDWEQTAAYNLDQVLEQGGVSSLLQNLAVSVTPIQRIVRSGENALKIDIHVIIPYEGLSADQMAQIEEVFKVVYPVDDHHFKVILPYGTLVIDGVTPNMLNYFGRPYEGIAVFDGKKITVTGTLWNGNKIIDERLITPD
On to B1, for which the “luminescence (furimazine substrate), fragments each at 1 µM” value in data set [1] and in data set [2] was “the mixture of all three components is the only combination that produced significant luminescence” in each case.
